Series [1] has as its system unidentified cell-surface target of sgc8 on CCRF-CEM cells. The conditions noted are these: 5'-diacyl lipid-(PEG)4, membrane anchored; CITED; value for sgc8 aptamer; CEM cell aggregation with lipo-sgc8-TMR shown here (FIG. 13A); cited from earlier work.
Series [2] addresses T1, IGHM (immunoglobulin heavy mu chain), on Ramos cells (UniProt P01871 P01871:1-474). Description: flow; Ramos cells; based on lipid unit concentration; 0.116 nM if 1000 copies per micelle. The following applies: tags: endogenous on Ramos cells (ATCC CRL-1596); chain copies: 2; label: 3'-FAM.
Series [3] concerns the target T1, IGHM (immunoglobulin heavy mu chain), …. The experiment in a line: flow; free TDO5 on Ramos cells; compared with micelle; elsewhere quoted as 74 nM (p179, CITED). The conditions noted are these: tags: endogenous on Ramos cells (ATCC CRL-1596); chain copies: 2; label: FITC.

T1 sequence (P01871 whole entry, one chain of several): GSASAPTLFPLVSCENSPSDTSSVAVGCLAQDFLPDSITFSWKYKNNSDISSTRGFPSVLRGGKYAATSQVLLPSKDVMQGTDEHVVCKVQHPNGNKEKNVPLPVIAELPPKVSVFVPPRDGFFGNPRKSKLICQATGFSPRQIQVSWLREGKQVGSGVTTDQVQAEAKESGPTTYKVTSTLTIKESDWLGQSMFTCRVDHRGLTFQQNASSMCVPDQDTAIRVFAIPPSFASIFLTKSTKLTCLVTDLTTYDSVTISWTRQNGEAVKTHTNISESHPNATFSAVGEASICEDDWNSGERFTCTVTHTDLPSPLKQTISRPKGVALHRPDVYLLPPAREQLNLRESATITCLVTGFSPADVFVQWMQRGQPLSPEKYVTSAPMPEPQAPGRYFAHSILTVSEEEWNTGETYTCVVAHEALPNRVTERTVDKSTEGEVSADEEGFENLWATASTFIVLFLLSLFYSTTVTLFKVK

For orientation: Kd means the equilibrium constant for the complex coming apart. On to “TTTTTTTATCTAACTGCTGCGCCGCCGGGAAAATACTGTACGGTTAGA [Lipo-sgc8-TMR]”, for which the Kd in series [1] is 0.8 nM.

Molecule AACACCGGGAGGATAGTTCGGTGGCTGTTCAGGGTCTCCTCCCGGTGA (ssDNA, 5'-diacyl lipid tail-(CH2CH2O)24; self-assembled micelle) [TDO5-micelle (lipid-TDO5)] showed a dissociation constant Kd in series [2] of 116 nM.

AACACCGGGAGGATAGTTCGGTGGCTGTTCAGGGTCTCCTCCCGGTGA (ssDNA) [TDO5] displayed a Kd in series [3] of 88 nM.
